{"source": "paper PMC2948610", "test_in_all_cases": "thioflavin T fluorescence", "key": {"[1]": {"target": "MSP2_(1–25), recombinant 25-residue peptide corresponding to the entire conserved N-terminal domain of mature MSP2 (Plasmodium falciparum)"}, "[2]": {"target": "[F11A,I12A]MSP2_(1–25) (Plasmodium falciparum)"}, "[3]": {"target": "[Y7A,Y16A]MSP2_(1–25) (Plasmodium falciparum)"}}, "data": [{"substance": "MSP2_(1–25), recombinant 25-residue peptide corresponding to the entire conserved N-terminal domain of mature MSP2", "values": [{"measurement": "lag time of fibril formation", "setting": "[1]", "value": 1, "unit": "h"}, {"measurement": "time to maximum ThT fluorescence (fibril formation)", "setting": "[1]", "value": 2, "unit": "h"}]}, {"substance": "[F11A,I12A]MSP2_(1–25) (peptide)", "values": [{"measurement": "lag time of fibril formation", "setting": "[2]", "value": 3.5, "unit": "h"}, {"measurement": "time to maximum ThT fluorescence (fibril formation)", "setting": "[2]", "value": 9, "unit": "h"}]}, {"substance": "[Y7A,Y16A]MSP2_(1–25) (peptide)", "values": [{"measurement": "lag time of fibril formation", "setting": "[3]", "value": 1, "unit": "h"}, {"measurement": "time to maximum ThT fluorescence (fibril formation)", "setting": "[3]", "value": 2, "unit": "h"}]}]}
